Results on 17 molecules are retold here after US20130115166A1 (CEPHALON AUSTRALIA, published 2013).

Sequences and labels used below:
B1: 11-23 (antibody, human IgG1, kappa, V domains shown)
VH: QVQLQESGPGLVKPSETLSLTCTVSGGSISSYNVHWIRQPPGKGLEWIGVIWTGGSTDYNPSLKSRVTISRDTSKNQFSLKLSSVTAADTAVYYCARDKYGLFPGYFDYWGQGTLVTVSS
VL: DIVMTQTPLSLPVTPGEPASISCKPSQSLLSSGNRKNYLAWYLQKPGQSPQLLIYYASTRQSGVPDRFSGSGSGTDFTLKISRVEAEDVGVYYCLQHFNYPWTFGQGTKLEIKR
notes: Humanized form of E11E7; also called humanized antibody 11-23
B2: 11-22 (antibody, human IgG1, kappa, V domains shown)
VH: QVQLQESGPGLVKPSETLSLTCTVSGGSISSYNVHWIRQPPGKGLEWIGVIWTGGSTDYNPSLKSRVTISRDTSKNQFSLKLSSVTAADTAVYYCARDKYGLFPGYFDYWGQGTLVTVSS
VL: DIVMTQSPDSLAVSLGERATINCKPSQSLLSSGNRKNYLAWYQQKPGQPPKLLIYYASTRQSGVPDRFSGSGSGTDFTLTISSLQAEDVAVYYCLQHFNYPWTFGQGTKLEIKR
notes: Humanized form of E11E7; also called humanized antibody 11-22
B3: 5-22 (antibody, human IgG1, kappa, V domains shown)
VH: QVQLQESGPGLVKPSETLSLTCTVSGGSIISYNVHWIRQPPGKGLEWIGVIWTGGSTDYNPSLKSRVTISRDTSKNQFSLKLSSVTAADTAVYYCARDKYGLFPGYFDYWGQGTLVTVSS
VL: DIVMTQSPDSLAVSLGERATINCKPSQSLLSSGNRKNYLAWYQQKPGQPPKLLIYYASTRQSGVPDRFSGSGSGTDFTLTISSLQAEDVAVYYCLQHFNYPWTFGQGTKLEIKR
notes: Humanized form of E11E7; also called humanized antibody 5-22
B4: 10-23 (antibody, human IgG1, kappa, V domains shown)
VH: QVQLQESGPGLVKPSETLSLTCTVSGGSISSYNVHWIRQPPGKGLEWIGVIWTGGSTDYNPSLKSRVTISVDTSKNQFSLKLSSVTAADTAVYYCARDKYGLFPGYFDYWGQGTLVTVSS
VL: DIVMTQTPLSLPVTPGEPASISCKPSQSLLSSGNRKNYLAWYLQKPGQSPQLLIYYASTRQSGVPDRFSGSGSGTDFTLKISRVEAEDVGVYYCLQHFNYPWTFGQGTKLEIKR
notes: Humanized form of E11E7; also called humanized antibody 10-23
B5: 6-23 (antibody, human IgG1, kappa, V domains shown)
VH: QVQLQESGPGLVKPSETLSLTCTVSGFSISSYNVHWIRQPPGKGLEWIGVIWTGGSTDYNPSLKSRVTISRDTSKNQFSLKLSSVTAADTAVYYCARDKYGLFPGYFDYWGQGTLVTVSS
VL: DIVMTQTPLSLPVTPGEPASISCKPSQSLLSSGNRKNYLAWYLQKPGQSPQLLIYYASTRQSGVPDRFSGSGSGTDFTLKISRVEAEDVGVYYCLQHFNYPWTFGQGTKLEIKR
notes: Humanized form of E11E7; also called humanized antibody 6-23
B6: 10-22 (antibody, human IgG1, kappa, V domains shown)
VH: QVQLQESGPGLVKPSETLSLTCTVSGGSISSYNVHWIRQPPGKGLEWIGVIWTGGSTDYNPSLKSRVTISVDTSKNQFSLKLSSVTAADTAVYYCARDKYGLFPGYFDYWGQGTLVTVSS
VL: DIVMTQSPDSLAVSLGERATINCKPSQSLLSSGNRKNYLAWYQQKPGQPPKLLIYYASTRQSGVPDRFSGSGSGTDFTLTISSLQAEDVAVYYCLQHFNYPWTFGQGTKLEIKR
notes: Humanized form of E11E7; also called humanized antibody 10-22
B7: 7-22 (antibody, human IgG1, kappa, V domains shown)
VH: QVQLQESGPGLVKPSETLSLTCTVSGGSLSSYNVHWIRQPPGKGLEWIGVIWTGGSTDYNPSLKSRVTISRDTSKNQFSLKLSSVTAADTAVYYCARDKYGLFPGYFDYWGQGTLVTVSS
VL: DIVMTQSPDSLAVSLGERATINCKPSQSLLSSGNRKNYLAWYQQKPGQPPKLLIYYASTRQSGVPDRFSGSGSGTDFTLTISSLQAEDVAVYYCLQHFNYPWTFGQGTKLEIKR
notes: Humanized form of E11E7; also called humanized antibody 7-22
B8: 9-22 (antibody, human IgG1, kappa, V domains shown)
VH: QVQLQESGPGLVKPSETLSLTCTVSGFSLISYNVHWIRQPPGKGLEWIGVIWTGGSTDYNPSLKSRVTISVDTSKNQFSLKLSSVTAADTAVYYCARDKYGLFPGYFDYWGQGTLVTVSS
VL: DIVMTQSPDSLAVSLGERATINCKPSQSLLSSGNRKNYLAWYQQKPGQPPKLLIYYASTRQSGVPDRFSGSGSGTDFTLTISSLQAEDVAVYYCLQHFNYPWTFGQGTKLEIKR
notes: Humanized form of E11E7; also called humanized antibody 9-22
B9: 7-23 (antibody, human IgG1, kappa, V domains shown)
VH: QVQLQESGPGLVKPSETLSLTCTVSGGSLSSYNVHWIRQPPGKGLEWIGVIWTGGSTDYNPSLKSRVTISRDTSKNQFSLKLSSVTAADTAVYYCARDKYGLFPGYFDYWGQGTLVTVSS
VL: DIVMTQTPLSLPVTPGEPASISCKPSQSLLSSGNRKNYLAWYLQKPGQSPQLLIYYASTRQSGVPDRFSGSGSGTDFTLKISRVEAEDVGVYYCLQHFNYPWTFGQGTKLEIKR
notes: Humanized form of E11E7; also called humanized antibody 7-23
B10: 5-23 (antibody, human IgG1, kappa, V domains shown)
VH: QVQLQESGPGLVKPSETLSLTCTVSGGSIISYNVHWIRQPPGKGLEWIGVIWTGGSTDYNPSLKSRVTISRDTSKNQFSLKLSSVTAADTAVYYCARDKYGLFPGYFDYWGQGTLVTVSS
VL: DIVMTQTPLSLPVTPGEPASISCKPSQSLLSSGNRKNYLAWYLQKPGQSPQLLIYYASTRQSGVPDRFSGSGSGTDFTLKISRVEAEDVGVYYCLQHFNYPWTFGQGTKLEIKR
notes: Humanized form of E11E7; also called humanized antibody 5-23
B11: 9-23 (antibody, human IgG1, kappa, V domains shown)
VH: QVQLQESGPGLVKPSETLSLTCTVSGFSLISYNVHWIRQPPGKGLEWIGVIWTGGSTDYNPSLKSRVTISVDTSKNQFSLKLSSVTAADTAVYYCARDKYGLFPGYFDYWGQGTLVTVSS
VL: DIVMTQTPLSLPVTPGEPASISCKPSQSLLSSGNRKNYLAWYLQKPGQSPQLLIYYASTRQSGVPDRFSGSGSGTDFTLKISRVEAEDVGVYYCLQHFNYPWTFGQGTKLEIKR
notes: Humanized form of E11E7; also called humanized antibody 9-23
B12: 8-23 (antibody, human IgG1, kappa, V domains shown)
VH: QVQLQESGPGLVKPSETLSLTCTVSGFSLISYNVHWIRQPPGKGLEWIGVIWTGGSTDYNPSLKSRVTISRDTSKNQFSLKLSSVTAADTAVYYCARDKYGLFPGYFDYWGQGTLVTVSS
VL: DIVMTQTPLSLPVTPGEPASISCKPSQSLLSSGNRKNYLAWYLQKPGQSPQLLIYYASTRQSGVPDRFSGSGSGTDFTLKISRVEAEDVGVYYCLQHFNYPWTFGQGTKLEIKR
notes: Humanized form of E11E7; also called humanized antibody 8-23
B13: 18-4 (antibody, human IgG1, kappa, V domains shown)
VH: EVQLQQWGAGLLKPSETLSLTCAVYGGSFSSYNVHWIRQPPGKGLEWIGVIWTGGSTDYNSVLKSRVTISVDTSKNQFSLKLSSVTAADTAVYYCARDKYGLFPGYFDYWGQGTLVTVSS
VL: EIVLTQSPATLSLSPGERATLSCKPSQSLLSSGNRKNYLAWYQQKPGQAPRLLIYYASTRQSGIPDRFSGSGSGTDFTLTISRLEPEDFAVYYCLQHFNYPWTFGGGTKVEIKR
notes: Humanized form of E11E7; also called humanized antibody 18-4
B14: 16-12 (antibody, human IgG1, kappa, V domains shown)
VH: QVQLQESGPGLVKPSQTLSLTCTVSGFSLISYNVHWIRQPPGKGLEWIGVIWTGGSTDYNSVLKSRVTMSRDTSKNQFSLKVNSVTAADTAVYYCARDKYGLFPGYFDYWGQGTLVTVSS
VL: EIVMTQSPATLSLSPGERATLSCKPSQSLLSSGNRKNYLAWYQQKPGQAPRLLIYYASTRQSGIPARFSGSGSGTDFTLTISSLEPEDFAVYYCLQHFNYPWTFGGGTKAEIKR
notes: Humanized form of E11E7; also called humanized antibody 16-12
B15: 13-12 (antibody, human IgG1, kappa, V domains shown)
VH: QVQLQESGPGLVKPSQTLSLTCTVSGFSLISYNVHWIRQPPGKGLEWIGVIWTGGSTDYNSVLKSRVTMSVDTSKNQFSLKVNSVTAADTAVYYCARDKYGLFPGYFDYWGQGTLVTVSS
VL: EIVMTQSPATLSLSPGERATLSCKPSQSLLSSGNRKNYLAWYQQKPGQAPRLLIYYASTRQSGIPARFSGSGSGTDFTLTISSLEPEDFAVYYCLQHFNYPWTFGGGTKAEIKR
notes: Humanized form of E11E7; also called humanized antibody 13-12
B16: 15-12 (antibody, human IgG1, kappa, V domains shown)
VH: QVQLQESGPGLVKPSQTLSLTCTVSGGSISSYNVHWIRQPPGKGLEWIGVIWTGGSTDYNSVLKSRVTMSVDTSKNQFSLKVNSVTAADTAVYYCARDKYGLFPGYFDYWGQGTLVTVSS
VL: EIVMTQSPATLSLSPGERATLSCKPSQSLLSSGNRKNYLAWYQQKPGQAPRLLIYYASTRQSGIPARFSGSGSGTDFTLTISSLEPEDFAVYYCLQHFNYPWTFGGGTKAEIKR
notes: Humanized form of E11E7; also called humanized antibody 15-12
B17: 14-12 (antibody, human IgG1, kappa, V domains shown)
VH: QVQLQESGPGLVKPSQTLSLTCTVSGGSISSYNVHWIRQPPGKGLEWIGVIWTGGSTDYNSVLKSRVTMSRDTSKNQFSLKVNSVTAADTAVYYCARDKYGLFPGYFDYWGQGTLVTVSS
VL: EIVMTQSPATLSLSPGERATLSCKPSQSLLSSGNRKNYLAWYQQKPGQAPRLLIYYASTRQSGIPARFSGSGSGTDFTLTISSLEPEDFAVYYCLQHFNYPWTFGGGTKAEIKR
notes: Humanized form of E11E7; also called humanized antibody 14-12

This test deals with T1, IL-23 (HEK293E-derived) (human, UniProt P29460 23-328; Q9NPF7 20-189).
T1 sequence 1: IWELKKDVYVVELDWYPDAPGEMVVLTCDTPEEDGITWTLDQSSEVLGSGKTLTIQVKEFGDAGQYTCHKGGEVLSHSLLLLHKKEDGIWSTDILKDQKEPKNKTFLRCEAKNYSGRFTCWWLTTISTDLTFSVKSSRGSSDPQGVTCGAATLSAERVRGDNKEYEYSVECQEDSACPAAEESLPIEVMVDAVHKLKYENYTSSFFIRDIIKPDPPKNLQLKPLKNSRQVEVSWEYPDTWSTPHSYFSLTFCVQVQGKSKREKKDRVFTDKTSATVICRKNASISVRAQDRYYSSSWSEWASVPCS
T1 sequence 2: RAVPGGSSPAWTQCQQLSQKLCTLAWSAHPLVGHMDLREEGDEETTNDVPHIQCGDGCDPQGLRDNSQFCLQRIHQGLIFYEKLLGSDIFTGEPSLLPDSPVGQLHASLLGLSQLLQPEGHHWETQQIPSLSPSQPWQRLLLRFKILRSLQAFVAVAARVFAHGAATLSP
In words: SPR (Biacore), antibody supernatant captured on Protein A, IL-23 at 5 ug/ml as analyte. As for the experimental part:
As a result of the humanization processes 22 humanized antibodies were produced and tested for their ability to bind human IL-23 (Table 4). Briefly, 2 mL transfections of the 22 humanized antibodies were screened for antibody expression level and binding activity via SPR. Protein A was immobilized onto FC1 and FC2 (or alternatively FC3 and FC4) of a CM5 research grade sensor chip using amine coupling, giving approximately 3000 RU. FC1 was used as a blank throughout the experiments. The experiments were run in HBS-P buffer (SPR). Antibody-containing cell culture supernatants were diluted in 10× HBS-P buffer at a ratio of 9:1. The diluted antibody was injected over FC2 at a flow rate of 20 μl/min. IL-23 (HEK293E-derived) was passed over the surface of FC1 and FC2 at a concentrations of 5 μg/ml as a kinetic injection with 5 min dissociation time across both
FC. Regeneration of the surface was performed using 10 mM Glycine, pH 1.5. The sensorgram data from FC2 were subtracted from FC1 and a buffer only control. […] The Sequence IDs of the variable heavy and light chains for each antibody are given in the Table 4 along with kd (off-rates) of selected tested antibodies.
(Surface plasmon resonance follows binding to a sensor surface in real time, without labels.)
Regarding B1, the koff (commonly a measure of how fast the partners let go of each other) amounted to 0.00462 s⁻¹. Next, B2: 0.00121 s⁻¹. As for B3, the figure is 0.00198 s⁻¹. Next, B4: 0.013 s⁻¹.

Regarding B5, the koff was 0.000566 s⁻¹. As for B6, the figure is 0.00313 s⁻¹; as for B7, 0.00102 s⁻¹. Next, B8: 0.000198 s⁻¹; B9: 0.00391 s⁻¹. As for B10, the figure is 0.00639 s⁻¹. Molecule B11 showed a koff of 0.00056 s⁻¹. As for B12, the figure is 0.000285 s⁻¹. As for B13, the figure is 0.00133 s⁻¹; as for B14, 0.000224 s⁻¹. Next, B15: 0.000855 s⁻¹.

Turning to B16, the koff stood at 0.006 s⁻¹.

B17: the koff stood at 0.00349 s⁻¹.
